Assay results from the nanobody polyreactivity screen of Harvey et al. (2022).

Experiment: yeast display, Sf9 membrane polyspecificity reagent, FACS + sequencing; frameworks hold sequencing errors
Summary of the method: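 In a synthetic yeast display library (Saccharomyces cerevisiae BJ5465), nanobody expression was induced with galactose for 36–48 hours. FACS gates were set low and high (top ~1%) using anti-HA fluorescence for expression and streptavidin fluorescence for binding of the Sf9 membrane reagent. Each polyreactivity label is drawn from the gate of origin.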

| Sequence | polyreactivity (PSR sort gate) |
| --- | --- |
| QVQLVESGGGLVQAGGSLRLSCAASGRTFYYYYTMGWYRQAPGKERELVAAISRSGSTNYADSVKGRFTISRDNAKNTVYLQMNSLKPEDTAVYYCAKETNRVGRYHCGQGTQVTVSS | low polyreactivity |
| QVQLVESGGGLVQAGGSLRLSCAASGRTIAAYAMGWYRQAPGKERELVAAISRSGGSTYYADSVKGRFTISRDNAKNTVYLQMNSLKPEDTAVYYCAAQRQYGKFDYWGQGTQVTVSS | high polyreactivity |
| QVQLVESGGGLVQAGGSLRLSCAASGRTIASYAMGWYRQAPGKERELVAAITSGGSTYYADSVKGRFTISRDNAKNTVYLQMNSLKPEDTAVYYCARIHAIWRGYDYWGQGTQVTVSS | low polyreactivity |
| QVQLVESGGGLVQAGGSLRLSCAASGRTIASYTMGWYRPAPGKERELVAAISKSGGSTYYADSVKGRFTISRDNAKNTVYLQMNSLKPEDTAVYYCAKRRSGNVRKYDYWGQGTQVTVSS | high polyreactivity |
| QVQLVESGGGLVQAGGSLRLSCAASGRTIASYTMGWYRQAPGKERELVAAISKSGGSTYYADSVKGRFTISRDNAKNTVYLQMNSLKPEDTAVYYCAAGVPFWFWFEMDYWGQGTQVTVSS | high polyreactivity |
| QVQLVESGGGLVQAGGSLRLSCAASGRTIFYYAMGWYRQAPGKERELVATITKRGGSTYYADSVKGRFTISRDNAKNTVYLQMNSLKPEDTALYYCAARFVGWRGGRAYYYWGQGTQVTVAS | high polyreactivity |
| QVQLVESGGGLVQAGGSLRLSCAASGRTIGPYAMGWYRQAPRKERELVAAISWSVGSTYYADSVKGRFTISRDNAKNTVYLQMNSLKPVDTAVYFCGAVYYSHVYYWGQGTQVTVSS | high polyreactivity |
| QVQLVESGGGLVQAGGSLRLSCAASGRTIGSNVMGWYRQAPGKERELVAAITYSGVSTYADSVKGRFTISRDNAKNTVYLQINSLKPEDTAVYYCNAYPTTYYQQYDYWGQGTQVTVSS | low polyreactivity |
| QVQLVESGGGLVQAGGSLRLSCAASGRTIIVYAMGWYRQAPGKERELVASITGIGDRTYYADSVKGRFTISRDNAKNTVYLQMNSLKPEDTAVYYCAKYGRTRFYYWGQGTQVTVSS | high polyreactivity |
| QVQLVESGGGLVQAGGSLRLSCAASGRTILHYAMGWYSQAPGKERELVASISSGVSTHYADSVKGRFTISRDNAKNTVYLQMNSLIPEDTAVYDCAARPYRIGRYGYDYDYWGQGTQVTVSS | high polyreactivity |
| QVQLVESGGGLVQAGGSLRLSCAASGRTIQWYAMGWYRQAPGKERELVAGISFSGGSTYYADSVKGRFTISRDNAKNTVYLQMNSLKPEDTAVYYCNAQGYTTYRGDYWGQGTQVTVSS | high polyreactivity |
| QVQLVESGGGLVQAGGSLRLSCAASGRTIRGNAMGWYRQAPGKERELVAAIRWNGGSTYYADSVKGRFTISRDNAKNTVYLQMNSLKPEDSAVSYCAVSYWYSRYDYWGQGTQVTVSS | high polyreactivity |
| QVQLVESGGGLVQAGGSLRLSCAASGRTIRRYAMGWYRQAPGKERELVAAITISGGSTYYADSVKGRFTISRDNAKNTVYLQMNSLKPEDTAVYYCAAQPWRALGYYYWGQGTQVTVSS | high polyreactivity |
| QVQLVESGGGLVQAGGSLRLSCAASGRTIRVNAMGWYRQAPRKERELVAAISRSTGDTYYADSVKGRFTNSRDNAKNTVYLQMHSLKPEDTAVYYCAADVPGGEGDYAYEYWGQGTQVNVSS | low polyreactivity |
| QVQLVESGGGLVQAGGSLRLSCAASGRTIRWNAMGWYRQAPGKERELVAAITSRGGSTYYADSVKGRFTISRDNAKNTVYLQMISLKPEDTAVSYCAKQPKPPPVTGYDYSGQGTQVTVSS | high polyreactivity |
| QVQLVESGGGLVQAGGSLRLSCAASGRTIRYNAMGWYRHAPGKERELVAAITGSGGSTYYADSVKGRFTISRDNAKNTVYLQMNSLKPEDTAAYSCNAVGIWFPIRLIVPYDYWGQGTQVTVSS | low polyreactivity |
| QVQLVESGGGLVQAGGSLRLSCAASGRTIRYYSMGWYRQAPGKESELVAAINYSGGRTYYADSVKGRFTISRDNSMNTVYLQLNSLKPEDTAVYYCNAVLGPYFPKFDYWGQGTQVTVSS | high polyreactivity |
